Experiment [1] addresses 4 domain CD4 (residues 1-388) with a C-terminal twin strep tag (human) (UniProt P01730). The experiment in a line: SEC.
Experiment [2] addresses intact human C-C chemokine receptor type 5 (human) (UniProt P51681). The experiment in a line: SEC. (In gel filtration, larger molecules generally elute earlier.)
UniProt P51681, sequence (P51681 whole entry): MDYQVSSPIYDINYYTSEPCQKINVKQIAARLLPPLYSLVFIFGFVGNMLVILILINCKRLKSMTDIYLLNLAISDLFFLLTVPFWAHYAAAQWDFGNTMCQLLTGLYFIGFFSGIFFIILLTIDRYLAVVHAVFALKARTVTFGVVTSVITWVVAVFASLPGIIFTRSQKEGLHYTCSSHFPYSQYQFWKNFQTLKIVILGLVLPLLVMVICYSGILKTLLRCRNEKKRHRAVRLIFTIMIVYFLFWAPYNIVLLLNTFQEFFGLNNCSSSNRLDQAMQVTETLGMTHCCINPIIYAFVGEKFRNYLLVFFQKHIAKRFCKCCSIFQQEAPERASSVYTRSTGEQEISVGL

By stoichiometry N is commonly meant a count of units in the complex or per binding partner. “HIV-1 gp120 (residues 1-507) from the isolate 92BR020 with a C-terminal 6xhistidine tag (natural protein)” registered a stoichiometry N in experiment [1] of 1.
Consider “preformed CD4-gp120 complex (from UniProt P01730 26-388)”, for which, in experiment [2], the stoichiometry N is 1.
